Experimental data as given in publication PMC8784325, “The ubiquitin-binding domain of DNA polymerase η directly binds to DNA clamp PCNA and regulates translesion DNA synthesis” (The Journal of Biological Chemistry, 2021).

What was measured:
[1] = system: rad30Δ S. cerevisiae strain; experiment: UV sensitivity complementation (spot assay), rad30Δ strain; format: cell-based, Saccharomyces cerevisiae; conditions: ADH1 promoter, UV 16–32 J/m^2, 30 °C, 3 days
Description: Figure 1 Identification of PCNA interaction region in CaPolη.A, amino acid alignment between Ca- and Sc-Polη was carried out by EMBOSS Needle; identical amino acids are marked by ∗ and similar amino acids were marked by: symbols. All the important motifs and domains are underlined, including Motif I to V, PAD, ubz and pip. Putative pip sequences were labeled as Seq-1 through Seq-4 in the C-terminal domain. […] C, putative pip sequences of CaPolη were compared with the already identified pip motifs of other Y-family pols. D, line diagram showing various domains of Polηs and a C-terminal deletant CaPolη (1–512). E, determination of binding kinetics of wild type or truncated CaPolƞ (1–512) with CaPCNA by ITC. […] F, UV sensitivities of S. cerevisiae strains. Cells of genomic rad30Δ and rad30Δrev3Δ deletion S. cerevisiae strains harboring YEP-ADH1p or YEP-ADH1p-ScPolη or YEP-ADH1p-CaPolη or YEP-ADH1p-CaPolη (1–512) or YEP-ADH1p-CaPolη F485A,L486A plasmids from an overnight SD-Ura culture were serially diluted and spotted onto SD-Ura plates. […]
Figure 2 Ubz domain of CaPolη is essential TLS activity.A, a line diagram showing the deletion and site-directed mutations in the ubz domain of CaPolη. […] Following UV irradiation, plates were incubated in the dark, and colonies were counted after 3 to 5 days. […]

[2] = system: rad30Δ S. cerevisiae strain; conditions: S. cerevisiae strains; cited from earlier work

B1: ScPolη F627A,F628A (protein, UniProt Q04049 1-632, looked up, variant F627A F628A)
DNA polymerase eta: MSKFTWKELIQLGSPSKAYESSLACIAHIDMNAFFAQVEQMRCGLSKEDPVVCVQWNSIIAVSYAARKYGISRMDTIQEALKKCSNLIPIHTAVFKKGEDFWQYHDGCGSWVQDPAKQISVEDHKVSLEPYRRESRKALKIFKSACDLVERASIDEVFLDLGRICFNMLMFDNEYELTGDLKLKDALSNIREAFIGGNYDINSHLPLIPEKIKSLKFEGDVFNPEGRDLITDWDDVILALGSQVCKGIRDSIKDILGYTTSCGLSSTKNVCKLASNYKKPDAQTIVKNDCLLDFLDCGKFEITSFWTLGGVLGKELIDVLDLPHENSIKHIRETWPDNAGQLKEFLDAKVKQSDYDRSTSNIDPLKTADLAEKLFKLSRGRYGLPLSSRPVVKSMMSNKNLRGKSCNSIVDCISWLEVFCAELTSRIQDLEQEYNKIVIPRTVSISLKTKSYEVYRKSGPVAYKGINFQSHELLKVGIKFVTDLDIKGKNKSYYPLTKLSMTITNFDIIDLQKTVVDMFGNQVHTFKSSAGKEDEEKTTSSKADEKTPKLECCKYQVTFTDQKALQEHADYHLALKLSEGLNGAEESSKNLSFGEKRLLFSRKRPNSQHTATPQKKQVTSSKNILSAATRKK
For B1, the “UV sensitivity / complementation (in words)” value [1] is listed as “abrogated its TLS function and displayed equal UV sensitivity with rad30Δ strain” and the “UV sensitivity and UV-induced mutagenesis (in words)” value [2] is listed as “enhanced UV sensitivity and UV-induced mutagenesis”.
